A word on the EC50: it is the concentration that produces a half-maximal response. As usually defined, the Kd is a measure of binding affinity in units of concentration. Broadly, the koff is the first-order rate constant of dissociation. The kon is the rate constant with which the complex forms.

The values that follow come from patent publication US20220396619A1 (Eli Lilly, published 2022).

For assay [1], the target named is T1, Cynomolgus monkey CD200RLa (cynomolgus monkey).
T1 construct: also called cynoCD200RLa
T1 chain: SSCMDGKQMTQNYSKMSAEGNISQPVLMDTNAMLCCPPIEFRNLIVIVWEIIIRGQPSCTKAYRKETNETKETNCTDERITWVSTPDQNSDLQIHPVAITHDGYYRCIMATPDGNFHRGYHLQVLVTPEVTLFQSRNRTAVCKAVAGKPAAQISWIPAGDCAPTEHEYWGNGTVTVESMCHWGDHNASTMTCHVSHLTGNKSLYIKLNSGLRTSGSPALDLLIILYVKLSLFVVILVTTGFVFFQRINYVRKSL
Description: flow cytometry on CHO cells expressing the receptor; midpoint of titration, one-site saturation fit. The procedure: (§1) To perform flow cytometry, CD200R-expressing CHO cells are counted using a Vicell counter and pelleted by centrifugation at 1200 RPM, aspirated and resuspended in phosphate buffered saline (PBS). Cells are counted again and after another centrifugation are adjusted to 10⁶ cells/mL in flow cytometry wash buffer (PBS w/10% NGS & 2% FBS & 0.05% NaN₃) with Fc block (BD Biosciences). Cells are blocked on ice for 15 minutes. Next the tubes are centrifuged, aspirated, and washed once with cold wash buffer. After the wash, the cells are adjusted to 10⁶ cells/mL in wash buffer and plated at […] (50 μL) in a 96-well tissue culture plate (Corning 3799). Antibody A is titrated (1:3 dilutions) on the 96-well polystyrene plates (Corning 3879) starting at 30 μg/mL (final concentration) in cold wash buffer. Next, Antibody A is transferred at 50 μL/well into the Corning 3799 plate containing cells. The plates are incubated on ice for 45 minutes then washed twice with 150 μL cold wash buffer. Next, 100 μL secondary Goat anti-human IgG Fc-PE (Jackson Cat. No. 109-116-098 or Jackson Cat. No. 109-116-088) is added at a 1:500 or 1:400 dilution in wash buffer and incubated for 45 minutes on ice. Plates are washed twice and 200 μL propidium iodide (1:1000 dilution in wash buffer; Molecular Probes Cat. No. P3566) is added as the cell viability stain. The plates are covered with foil on ice. Flow cytometry is then performed using a Fortessa instrument acquiring with FACS Diva software (both from Becton Dickinson) and analyzing with FlowJo (version 10.5.3).
(§2) Antibody A is tested for its binding to recombinantly expressed isoforms of both human and cynomolgus monkey CD200R and the related activating cynomolgus monkey CD200RLa protein on Chinese Hamster Ovary (CHO) cell line surfaces using flow cytometry. The antibody is titrated onto CHO cells expressing the polypeptide of interest. The flow cytometry binding curves are fit using the one-site saturation binding model in GraphPad Prism.

Assay [2] deals with T2, Cynomolgus monkey CD200R long isoform (cynomolgus monkey).
T2 construct: Stably expressed on CHO cells; also called cynomolgus monkey CD200R long isoform on CHO cells
T2 chain: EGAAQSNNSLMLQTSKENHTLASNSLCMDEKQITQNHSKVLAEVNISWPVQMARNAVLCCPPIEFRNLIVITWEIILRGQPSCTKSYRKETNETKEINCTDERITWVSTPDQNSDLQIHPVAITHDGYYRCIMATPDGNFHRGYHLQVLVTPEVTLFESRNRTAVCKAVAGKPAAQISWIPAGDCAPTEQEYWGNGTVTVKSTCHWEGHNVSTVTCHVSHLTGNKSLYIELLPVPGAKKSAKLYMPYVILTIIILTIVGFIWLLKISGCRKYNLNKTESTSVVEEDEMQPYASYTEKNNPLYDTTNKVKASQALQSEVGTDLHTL
Described as above. As to the method:
as §1, §2

Assay [3] addresses T3, Human CD200R short isoform (human, UniProt Q8TD46 46-348).
T3 construct: Stably expressed on CHO cells; also called human CD200R short isoform on CHO cells
T3 sequence: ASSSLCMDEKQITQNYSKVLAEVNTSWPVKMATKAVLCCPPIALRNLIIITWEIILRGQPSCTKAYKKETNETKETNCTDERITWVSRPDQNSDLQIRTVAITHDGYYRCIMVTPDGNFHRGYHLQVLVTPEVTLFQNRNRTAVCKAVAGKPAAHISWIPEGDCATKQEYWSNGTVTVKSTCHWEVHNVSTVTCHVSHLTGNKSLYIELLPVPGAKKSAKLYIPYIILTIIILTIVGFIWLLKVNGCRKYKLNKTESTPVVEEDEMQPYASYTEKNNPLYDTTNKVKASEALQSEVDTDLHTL
The assay is described as above. The procedure: as §1, §2

Assay [4] deals with T4, Human CD200R long isoform (human, UniProt Q8TD46 25-348).
T4 construct: Stably expressed on CHO cells; also called human CD200R long isoform on CHO cells
T4 chain: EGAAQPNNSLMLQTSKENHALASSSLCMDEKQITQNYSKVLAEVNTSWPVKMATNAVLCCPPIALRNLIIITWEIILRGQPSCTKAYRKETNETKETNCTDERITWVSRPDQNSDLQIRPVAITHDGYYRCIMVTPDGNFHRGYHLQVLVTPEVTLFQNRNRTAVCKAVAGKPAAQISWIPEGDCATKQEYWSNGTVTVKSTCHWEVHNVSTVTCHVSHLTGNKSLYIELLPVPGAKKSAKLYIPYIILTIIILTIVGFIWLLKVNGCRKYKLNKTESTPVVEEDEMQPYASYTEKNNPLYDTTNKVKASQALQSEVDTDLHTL
The description is as above. The procedure: as §1, §2

Assay [5] concerns the target T5, soluble cynomolgus monkey CD200R long isoform ECD-His polypeptide (cynomolgus monkey).
T5 construct: Expressed in HEK293 or CHO cells; also called cynoCD200R long isoform ECD-His; cynoCD200R-ECD long isoform-His
T5 chain: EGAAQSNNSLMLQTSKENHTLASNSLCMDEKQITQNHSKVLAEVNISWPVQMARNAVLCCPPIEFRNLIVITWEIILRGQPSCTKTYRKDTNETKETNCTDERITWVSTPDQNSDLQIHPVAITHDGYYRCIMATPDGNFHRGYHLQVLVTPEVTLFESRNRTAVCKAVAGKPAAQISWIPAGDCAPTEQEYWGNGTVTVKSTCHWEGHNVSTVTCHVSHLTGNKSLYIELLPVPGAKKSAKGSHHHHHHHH
In words: SPR (Biacore T200), antibody captured on Protein A, receptor ECD-His as analyte, 37 C, n = 3. From the text: (§3) A BIACORE™ T200 (GE Healthcare, Piscataway, N.J.) is used to measure the binding kinetics and affinities of Antibody A to soluble human CD200R long isoform extracellular domain (ECD)-His polypeptide (SEQ ID NO: 17) (R&D Systems Cat. No. 10053-CD-050) and soluble cynomolgus monkey CD200R long isoform ECD-His polypeptide (SEQ ID NO: 19). Cynomolgus monkey CD200R ECD long isoform-His is expressed in HEK293 or CHO cells and purified using Ni SEPHAROSE™ excel column (GE Healthcare Life Sciences) and size exclusion chromatography.
(§4) A Series S CM4 chip (GE Healthcare Ca. No. BR-1005-34) is prepared using the manufacturer's EDC/NHS amine coupling method (GE Healthcare Cat. No. BR-1000-50). Briefly, the surfaces of all 4 flow cells are activated by injecting a 1:1 mixture of EDC/NHS for 7 minutes at 10 μL/minute. Protein A (Calbiochem Cat. No. 539202) is diluted to 100 μg/mL in 10 mM acetate pH 4.5 buffer and immobilized for approximately 400 RU onto all 4 flow cells by 7 minute injection at a flow rate of 10 μL/minute. Un-reacted sites are blocked with a 7 minute injection of ethanolamine at 10 μL/minute. Injections of 2×10 μL of glycine pH 1.5 are used to remove any non-covalently associated protein. Running buffer is 1× HBS-EP+ (10 mM HEPES, 150 mM NaCl, 0.05% Tween-20, pH 7.6, Teknova Cat. No. H8022).
(§5) Binding is evaluated using multi-cycle kinetics by an antibody capture method. Samples are diluted in 1× HBS-EP+ running buffer with 0.25% IgG free BSA (Jackson Immuno Research Cat. No. 001-000-161). Each cycle is performed at 37° C. at a flow rate of 20 μL/min for antibody capture to the Protein A chip and 30 μL/min for analyte association and dissociation.

Assay [6] has as its target T6, soluble human CD200R long isoform extracellular domain (ECD)-His polypeptide (human, UniProt Q8TD46 29-265).
T6 construct: Bought from R&D Systems, Cat. No. 10053-CD-050; also called Human CD200R long isoform ECD-His; human CD200R-ECD long isoform-His
T6 sequence: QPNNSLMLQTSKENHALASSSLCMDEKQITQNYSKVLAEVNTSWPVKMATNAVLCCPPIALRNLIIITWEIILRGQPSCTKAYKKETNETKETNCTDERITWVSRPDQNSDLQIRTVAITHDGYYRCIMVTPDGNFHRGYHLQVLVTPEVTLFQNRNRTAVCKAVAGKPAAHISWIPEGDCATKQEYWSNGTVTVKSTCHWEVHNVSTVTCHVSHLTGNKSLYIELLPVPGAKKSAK
Described as above.
Description: as §3, §4, §5

B1: Antibody A (antibody, human IgG4 S228P, kappa, F234A L235A, V domains shown)
VH: QVQLVESGGGVVQPGRSLRLSCAASGFTFSRYGMHWVRQAPGKGLEWVAVIPYDGSNKYYADSVKGRFTISRDISKNTLYLQMNSLRAEDTAVYYCARRGYYDSSGYYYFYYGMDVWGQGTTVTVSS
VL: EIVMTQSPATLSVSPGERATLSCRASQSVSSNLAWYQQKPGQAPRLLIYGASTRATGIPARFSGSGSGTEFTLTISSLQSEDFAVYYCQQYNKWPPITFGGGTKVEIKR
notes: The control used beside it is IgG4-PAA; also called Anti-human CD200R (Antibody A)
Regarding B1, the EC50 in assay [1] was 3.7 µg/mL; in assay [2] it was 2.3 µg/mL; in assay [3], 1.1 µg/mL; in assay [4] it was 3.2 µg/mL. The Kd was determined as 93.2 nM in assay [5] and 34.8 nM in assay [6]. Moreover, the Stoichiometry in assay [5] was 2.6; in assay [6], 1.9. Besides, the koff was found to be 0.00056 s⁻¹ in assay [5] and 0.00016 s⁻¹ in assay [6]. Also, the kon in assay [5] was 6200 M⁻¹ s⁻¹; in assay [6], 4700 M⁻¹ s⁻¹.
